Target: Tom1 (S. cerevisiae HECT ubiquitin ligase), full-length, wild type (S. cerevisiae) (UniProt Q03280)
Test: cryo-EM structure

UniProt Q03280, sequence (Q03280 whole entry): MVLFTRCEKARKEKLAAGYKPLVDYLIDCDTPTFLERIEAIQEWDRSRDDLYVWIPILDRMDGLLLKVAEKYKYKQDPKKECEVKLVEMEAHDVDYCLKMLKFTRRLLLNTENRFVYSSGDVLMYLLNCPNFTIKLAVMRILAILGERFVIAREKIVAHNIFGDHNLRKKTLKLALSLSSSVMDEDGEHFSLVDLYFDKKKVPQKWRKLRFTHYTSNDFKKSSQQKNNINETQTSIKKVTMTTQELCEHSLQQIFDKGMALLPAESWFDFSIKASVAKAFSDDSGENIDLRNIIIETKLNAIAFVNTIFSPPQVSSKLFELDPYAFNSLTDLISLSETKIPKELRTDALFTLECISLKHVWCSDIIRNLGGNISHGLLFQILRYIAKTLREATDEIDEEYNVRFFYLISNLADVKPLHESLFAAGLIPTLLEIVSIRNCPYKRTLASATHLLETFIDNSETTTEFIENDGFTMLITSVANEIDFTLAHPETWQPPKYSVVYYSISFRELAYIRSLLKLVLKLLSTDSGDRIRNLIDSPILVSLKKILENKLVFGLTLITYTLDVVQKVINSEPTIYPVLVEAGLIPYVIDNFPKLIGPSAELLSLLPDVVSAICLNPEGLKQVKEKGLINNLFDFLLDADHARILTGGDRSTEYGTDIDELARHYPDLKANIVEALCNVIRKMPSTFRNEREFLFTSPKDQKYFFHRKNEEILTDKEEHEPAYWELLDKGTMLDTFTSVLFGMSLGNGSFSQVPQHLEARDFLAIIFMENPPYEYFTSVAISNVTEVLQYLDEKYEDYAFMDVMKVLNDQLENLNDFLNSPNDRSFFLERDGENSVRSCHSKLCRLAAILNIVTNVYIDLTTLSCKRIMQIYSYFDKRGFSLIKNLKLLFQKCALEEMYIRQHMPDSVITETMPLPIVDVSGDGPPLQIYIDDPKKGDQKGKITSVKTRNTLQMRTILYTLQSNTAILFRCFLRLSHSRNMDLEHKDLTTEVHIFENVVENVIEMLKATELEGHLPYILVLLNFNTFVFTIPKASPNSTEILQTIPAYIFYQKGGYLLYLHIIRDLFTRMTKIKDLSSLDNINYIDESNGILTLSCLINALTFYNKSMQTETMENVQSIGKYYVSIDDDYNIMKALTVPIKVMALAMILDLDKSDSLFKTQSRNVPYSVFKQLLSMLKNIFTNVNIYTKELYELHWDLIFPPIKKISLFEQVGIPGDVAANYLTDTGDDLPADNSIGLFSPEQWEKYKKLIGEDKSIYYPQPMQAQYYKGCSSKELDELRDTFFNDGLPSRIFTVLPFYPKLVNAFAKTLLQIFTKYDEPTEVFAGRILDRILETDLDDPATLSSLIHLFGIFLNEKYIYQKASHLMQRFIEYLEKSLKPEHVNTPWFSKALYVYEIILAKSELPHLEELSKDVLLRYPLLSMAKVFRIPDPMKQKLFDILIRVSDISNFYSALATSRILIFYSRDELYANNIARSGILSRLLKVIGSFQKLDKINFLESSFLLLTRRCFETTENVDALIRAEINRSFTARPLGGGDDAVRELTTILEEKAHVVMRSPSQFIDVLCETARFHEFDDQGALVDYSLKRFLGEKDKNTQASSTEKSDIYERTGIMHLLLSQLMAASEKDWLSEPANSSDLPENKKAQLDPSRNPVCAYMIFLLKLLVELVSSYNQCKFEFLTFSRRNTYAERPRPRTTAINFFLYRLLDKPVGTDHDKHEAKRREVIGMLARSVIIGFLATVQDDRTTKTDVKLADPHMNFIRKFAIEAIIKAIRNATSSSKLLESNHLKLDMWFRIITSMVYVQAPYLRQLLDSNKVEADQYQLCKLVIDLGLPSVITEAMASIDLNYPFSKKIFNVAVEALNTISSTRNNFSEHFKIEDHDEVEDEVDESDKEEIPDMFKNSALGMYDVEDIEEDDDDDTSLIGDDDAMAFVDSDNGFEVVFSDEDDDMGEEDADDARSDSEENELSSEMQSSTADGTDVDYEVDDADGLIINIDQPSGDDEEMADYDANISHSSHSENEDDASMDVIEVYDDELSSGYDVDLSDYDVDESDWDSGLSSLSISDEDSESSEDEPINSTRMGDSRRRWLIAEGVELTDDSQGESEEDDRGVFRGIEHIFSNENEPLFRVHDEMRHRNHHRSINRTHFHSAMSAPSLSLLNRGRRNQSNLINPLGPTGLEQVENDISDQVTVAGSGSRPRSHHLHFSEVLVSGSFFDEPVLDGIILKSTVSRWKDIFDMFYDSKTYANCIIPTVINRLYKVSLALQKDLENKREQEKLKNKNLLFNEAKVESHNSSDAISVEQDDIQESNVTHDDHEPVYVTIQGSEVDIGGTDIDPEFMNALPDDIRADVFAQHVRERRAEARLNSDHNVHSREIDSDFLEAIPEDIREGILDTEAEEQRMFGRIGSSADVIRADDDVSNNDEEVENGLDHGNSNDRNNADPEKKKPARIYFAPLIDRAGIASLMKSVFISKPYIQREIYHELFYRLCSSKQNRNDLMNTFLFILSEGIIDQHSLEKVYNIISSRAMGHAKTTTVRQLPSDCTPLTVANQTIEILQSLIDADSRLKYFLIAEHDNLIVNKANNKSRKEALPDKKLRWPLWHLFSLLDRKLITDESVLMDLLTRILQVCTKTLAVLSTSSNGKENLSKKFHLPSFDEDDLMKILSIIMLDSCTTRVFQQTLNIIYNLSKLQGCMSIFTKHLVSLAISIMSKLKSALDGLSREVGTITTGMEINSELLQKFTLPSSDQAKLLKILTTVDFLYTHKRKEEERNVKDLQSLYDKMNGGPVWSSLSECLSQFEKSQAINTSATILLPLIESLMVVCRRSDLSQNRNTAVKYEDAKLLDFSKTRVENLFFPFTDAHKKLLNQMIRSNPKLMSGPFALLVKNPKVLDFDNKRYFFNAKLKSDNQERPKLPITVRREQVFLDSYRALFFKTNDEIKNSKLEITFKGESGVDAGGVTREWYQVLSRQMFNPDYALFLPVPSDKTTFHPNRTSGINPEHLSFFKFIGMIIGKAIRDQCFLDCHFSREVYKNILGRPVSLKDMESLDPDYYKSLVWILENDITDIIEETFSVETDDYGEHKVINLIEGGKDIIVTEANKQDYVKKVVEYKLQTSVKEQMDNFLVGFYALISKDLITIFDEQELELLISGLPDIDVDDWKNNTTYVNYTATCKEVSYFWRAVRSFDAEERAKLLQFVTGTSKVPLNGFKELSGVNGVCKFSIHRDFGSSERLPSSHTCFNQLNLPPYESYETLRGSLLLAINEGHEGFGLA

- stoichiometry N: 4
Substance: ubiquitin (from UniProt P0CG48 1-76) (natural protein)

Source: publication doi:10.1101/2024.11.25.625210
